The record followed here is the supplement of paper PMC12042874.

A short description of this series: amyloid nucleation score (Sup35N fusion, yeast selection) (log enrichment); library NNK3; higher = more nucleation; inactive = no reads after selection. In outline: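 Libraries of peptides of 20 random codons fused to Sup35N were expressed in psi-negative yeast and induced 24 hours with 100 μM copper sulfate. Selection was 7 days at 30°C on medium lacking adenine and uracil, and plasmid inserts were Illumina-sequenced before and after selection. Nucleation score is the DiMSum log enrichment of output over input reads, centred on the mode score of non-aggregating sequences, and sequences with under 100 input reads were left out.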

± gives the uncertainty stated by the source.

YIFQICRFGIYYVRSVYTTY: the amyloid nucleation score result was “inactive”. Take IMPYC: the amyloid nucleation score entry was “inactive”.

As to HTGNLYHLSWCV, the amyloid nucleation score result was “inactive”. With TRLRSTPVLVVNW, the amyloid nucleation score entry was “inactive”.

With FAQLISYHSMLTCCKMTM, the amyloid nucleation score was found to be 1.54 ± 0.096. The entry for LVEMKALRTD is “inactive”; for SVYDNYSLGNRYWERTFWLS it is “inactive”.

On to TNVSPLTPNT, for which the amyloid nucleation score result is “inactive”. The entry for HFCKRLENIVYLRIFIFYLN is “inactive”.

Regarding LPVPGTPLKKAVGGIIRGCG, the amyloid nucleation score result is “inactive”.

In the case of LSDGGAFLLIRHVFVWGFVT, the amyloid nucleation score result was “inactive”. The result for SYDMTLHG reads 0.436 ± 0.18; that for VKTSQRSVTL, “inactive”; that for VCQPNRSQIQGIFLLRNYSV, “inactive”.

For the substance HMCRTSCDRFGAIPNFMHWS, the amyloid nucleation score entry is “inactive”. As for SFLPNKYLL, the amyloid nucleation score entry was “inactive”. The result for VRRTLYISMRLRLIPYLSNV reads 1.62 ± 0.11; that for SIADRMHFLWVGEGGTRDYA, “inactive”. The result for KISSQIYMCRKTNSSDRTMM reads “inactive”; that for MRVLGLGEAWDDNGLRRLRA, “inactive”. The result for ESSMFARDTLWMSFVRTMHS reads “inactive”; that for SKRVIVWVTSLYWDV, “inactive”. In the case of LDYPNVCMDFLSKVFRDSVR, the amyloid nucleation score entry was “inactive”. The result for FMVLRYCVILWGFWEYMSSA reads “inactive”; that for ETRFIYAFYFD, “inactive”; that for RSMSTGNH, “inactive”. The entry for RIMGSPQSDS is “inactive”. The entry for IMANFVRMYLEYMMRAAVSL is “inactive”; for KRFDMMHIQTYEMGWSPSVR it is “inactive”. As for YGGFLKFSRYGIGRYIHLQL, the amyloid nucleation score result is “inactive”. SYFTMTDSSFSVAFANLLVY had an amyloid nucleation score of 0.289 ± 0.78. The entry for VGASQRVYSLLST is “inactive”; for LDKFHCRFYMQNSN it is “inactive”. The result for TLSRFPLGNCF reads “inactive”. Turning to FFLCDRKNRRST, the amyloid nucleation score entry is “inactive”.

As to SCSNCVHISRTAILTGPRSA, the amyloid nucleation score entry was “inactive”. The result for FMYKLSLLVCDKWLIVILPF reads “inactive”; that for NSFDNFFSLNLNTGAYY, “inactive”. The result for SYMVSLRIVLFFDYR reads “inactive”; that for QNVWSSVDNRWSIVENCTMA, 0.464 ± 0.37. On to LWSCPTDFRMCSVWLTLRVS, for which the amyloid nucleation score result was “inactive”. The result for VWSVHSHTQPMHSWSVRSAG reads “inactive”; that for SFSYNAQLYTQVVMSRYKMR, -0.193 ± 0.48; that for IRYRRHVNVEFKMYNWSCWC, -0.554 ± 0.63. The figure for TGVKQCSTFTVFIFAGPVEI is 1.74 ± 0.1; for KERIQCYMRLPRFIN it is “inactive”; for NEHSYLSGSWYPRSHLIYYC it is “inactive”. The entry for TRVFTGKQPENDRET is “inactive”; for HYSLSQDISDSNGLQLLFLL it is 2.1 ± 0.075; for GSVGTNCSGFVAPELRSPRC it is “inactive”. Turning to NRYLLRVVLYNSLTRLTVGF, the amyloid nucleation score result was “inactive”. Regarding FVILFVVFNYINALCDCNID, the amyloid nucleation score came out at 0.377 ± 0.27. The result for SERQTSLRHLGLRHLFK reads 1.22 ± 0.16. The entry for LLSIAVVDVPSRLSRCITLL is “inactive”.

Regarding SRKVRGYLLMTNFVCLSNYV, the amyloid nucleation score entry was “inactive”. With SNLFTGYGELFVPGS, the amyloid nucleation score entry is “inactive”. The entry for SVYYTPCAFFRLIEGNLEGL is “inactive”. On to ECIGRKRELDLWSAARYAYS, for which the amyloid nucleation score result was “inactive”. As for PCNFL, the amyloid nucleation score result is “inactive”. The result for SRWATGWTTIISYMEPWFRA reads “inactive”; that for DLPSMSIVIVIQKLYARVNR, “inactive”; that for IEWACVKQMYSHRALLRERR, “inactive”.

On to SGCLFAYSWSGCTLVRYDVF, for which the amyloid nucleation score was -0.416 ± 0.45. The figure for VATYVPCPCYSMFCAGIC is -0.355 ± 0.7. The result for RWPEPFSWFRFDYQIRDVVF reads “inactive”. The entry for SDYHWYVRTSCGSFSYGHVN is “inactive”. In the case of YDGLSSAMGEHIRNNNCLLV, the amyloid nucleation score result was “inactive”. The result for VWGYSMYVLQIWERYSSNV reads 1.01 ± 0.13. As to YGKQVLWN, the amyloid nucleation score result is “inactive”. The result for WGLMIWSWPYMFCTLLPASR reads “inactive”. The result for HHLTFTGGWYPDWHSLFMGG reads “inactive”; that for ILSVSLVVHRKRTTWISNYH, “inactive”. The figure for VNCATWNLNFTRMFMACIGL is 1.28 ± 0.12; for ITVSTGW it is “inactive”; for YYDMIMLPAKSDANRCYGCA it is “inactive”. For AWVDWKWRNGRSLAS, the amyloid nucleation score entry was “inactive”. As for EVIRCRSSEEIPGRTNSMWD, the amyloid nucleation score entry was “inactive”. With SYFGRLIQSLTRQWTTVARS, the amyloid nucleation score result was “inactive”. The result for TCAVKMVRSWCNIPINSFQA reads “inactive”; that for SAACLIMCVLLSILVQIFGM, “inactive”.

Regarding SKGGADNNWLVIDCPLNRRM, the amyloid nucleation score result was “inactive”. The result for VVCLFDVKFESARVLDLLSV reads “inactive”; that for RDQSVCGLSRGVIRVVGSCG, “inactive”; that for RSVVEWGS, “inactive”.

With NRILGGNLYVNVIDRIGGMV, the amyloid nucleation score result was “inactive”.

The substance KCAALLDPDSASGGRCEWNC yielded an amyloid nucleation score of 1.08 ± 0.17. On to QCKVCIMLYKGDLRANGWYG, for which the amyloid nucleation score was 1.86 ± 0.091. As to SGLWHRILCSGRPTGYTQWV, the amyloid nucleation score result was “inactive”. The entry for NCINVYGNTNLLRGPVGTSG is “inactive”; for KYLLLKRNARQRLHTVCHQA it is “inactive”. The result for RIVNS reads “inactive”.

Consider CQGIMDRRTSKRMPIANMVQ, for which the amyloid nucleation score entry was “inactive”. The entry for YFIRVILPFQLTLVVIWYKF is “inactive”; for RWFRLSWLEISKYA it is “inactive”; for FVIVGSGSQSPEYIWNVKYE it is -0.049 ± 0.32. The result for VMHGFVGAAKSNWKNPWHRA reads “inactive”; that for TIVRY, 1.1 ± 0.21; that for YRFFVKYMLLIYLINFNIFL, 0.057 ± 0.6.

Regarding CYWVRDSRLGW, the amyloid nucleation score result is “inactive”. The result for RPMRACRGMEVRGFSSEVSA reads “inactive”; that for EYYRWFYN, “inactive”; that for FQLWVKRTYNAEGNLYSPDD, “inactive”.

FKNRYFHLPCSDLLYHSLGR: the amyloid nucleation score entry is “inactive”. The entry for CRVRGAVRSLLHTVFKVDWV is “inactive”; for SFMVIIYAVERVIVGITGKS it is 0.611 ± 0.16.

In the case of NSRFIMHHVGRAFDCDAYLF, the amyloid nucleation score is -0.194 ± 0.8. The entry for TQLLMEFSTVSALDITPCDG is “inactive”. The entry for GSSSSVYWFLDGCDTLKRHM is “inactive”; for WCAWAVTCLTGVISRPLHES it is 0.042 ± 0.43; for ISHVEYLVLEPSMVYF it is -0.349 ± 0.59. For NAQWLYCINSD, the amyloid nucleation score result was “inactive”. The result for CLYLAS reads “inactive”; that for NRFCLRSTLSYSWYGDRSWA, 0.185 ± 0.7. The entry for SPFVCHEPLLRVVWSSTCSF is “inactive”; for DTLYGDYQGQRYSVALMKCV it is “inactive”; for GCNNVH it is “inactive”. The figure for SLLKINGGVIHYFSCRMEDW is 0.684 ± 0.34. Take ECTLGCTSDWGNLKARHGVR: the amyloid nucleation score entry is “inactive”. The result for MCRMLFISGIQNCDPDVIMH reads 1.15 ± 0.12; that for PWRCKRWHFYMYVDCANLRQ, “inactive”.

The substance FYCGIWAYVEDCC displayed an amyloid nucleation score of 2.53 ± 0.057. The entry for FVGIIGWMIYVEGVY is “inactive”; for FRHCWRR it is -0.532 ± 1.1. Regarding YKFIRFFSSMT, the amyloid nucleation score result was “inactive”.

For CRRVTKFESAFTWIFCKSCD, the amyloid nucleation score is -0.013 ± 0.39.

As for ILCGESTR, the amyloid nucleation score result is “inactive”. The result for SGDLMEGGEYF reads “inactive”. The result for FVYTHIWGVGLGKML reads 0.632 ± 0.14; that for SYVICGLYIFGCIFRSFTLP, “inactive”.

For the substance GVGTYI, the amyloid nucleation score result was “inactive”. The entry for DSHGYIYLCVWVRTQNPWSV is “inactive”.
